Laboratory results: patent publication US20120316071A1 (published 2012)

B1: Fab VH5-51_IGHD5-18*01>3_IGHJ4*01 G100K/G104T F29A & V3-4_IGLJ1*01 (Fab, V domains shown)
VH: EVQLVQSGAEVKKPGESLKISCKGSGYSATSYWIGWVRQMPGKGLEWMGIIYPGDSDTRYSPSFQGQVTISADKSISTAYLQWSSLKASDTAMYYCARRKYSYTYDYFDYWGQGTLVTVSS
VL: QTVVTQEPSFSVSPGGTVTLTCGLSSGSVSTSYYPSWYQQTPGQAPRTLIYSTNTRSSGVPDRFSGSILGNKAALTITGAQADDESDYYCVLYMGSGISYVFGTGTKVTVL
notes: Fab expressed in E. coli with CH1 (plasmid A, His6 and Flag tags) and lambda CL (plasmid E); also called KT F29A
B2: Fab VH5-51_IGHD5-18*01>3_IGHJ4*01 G100K/G104T G35T & V3-4_IGLJ1*01 (Fab, V domains shown)
VH: EVQLVQSGAEVKKPGESLKISCKGSGYSFTSYWITWVRQMPGKGLEWMGIIYPGDSDTRYSPSFQGQVTISADKSISTAYLQWSSLKASDTAMYYCARRKYSYTYDYFDYWGQGTLVTVSS
VL: QTVVTQEPSFSVSPGGTVTLTCGLSSGSVSTSYYPSWYQQTPGQAPRTLIYSTNTRSSGVPDRFSGSILGNKAALTITGAQADDESDYYCVLYMGSGISYVFGTGTKVTVL
notes: Fab from E. coli: VH-CH1 from Plasmid A with His6 and Flag tags, VL with lambda CL from Plasmid E; also called KT G35T
B3: Fab VH5-51_IGHD5-18*01>3_IGHJ4*01 G100K/G104T G24A & V3-4_IGLJ1*01 (Fab, V domains shown)
VH: EVQLVQSGAEVKKPGESLKISCKASGYSFTSYWIGWVRQMPGKGLEWMGIIYPGDSDTRYSPSFQGQVTISADKSISTAYLQWSSLKASDTAMYYCARRKYSYTYDYFDYWGQGTLVTVSS
VL: QTVVTQEPSFSVSPGGTVTLTCGLSSGSVSTSYYPSWYQQTPGQAPRTLIYSTNTRSSGVPDRFSGSILGNKAALTITGAQADDESDYYCVLYMGSGISYVFGTGTKVTVL
notes: Fab expressed in E. coli with CH1 (plasmid A, His6 and Flag tags) and lambda CL (plasmid E); also called KT G24A
B4: Fab VH5-51_IGHD5-18*01>3_IGHJ4*01 G100K/G104T T30A & V3-4_IGLJ1*01 (Fab, V domains shown)
VH: EVQLVQSGAEVKKPGESLKISCKGSGYSFASYWIGWVRQMPGKGLEWMGIIYPGDSDTRYSPSFQGQVTISADKSISTAYLQWSSLKASDTAMYYCARRKYSYTYDYFDYWGQGTLVTVSS
VL: QTVVTQEPSFSVSPGGTVTLTCGLSSGSVSTSYYPSWYQQTPGQAPRTLIYSTNTRSSGVPDRFSGSILGNKAALTITGAQADDESDYYCVLYMGSGISYVFGTGTKVTVL
notes: Fab expressed in E. coli with CH1 (plasmid A, His6 and Flag tags) and lambda CL (plasmid E); also called KT T30A
B5: Fab VH5-51_IGHD5-18*01>3_IGHJ4*01 G100K/G104T S28N & V3-4_IGLJ1*01 (Fab, V domains shown)
VH: EVQLVQSGAEVKKPGESLKISCKGSGYNFTSYWIGWVRQMPGKGLEWMGIIYPGDSDTRYSPSFQGQVTISADKSISTAYLQWSSLKASDTAMYYCARRKYSYTYDYFDYWGQGTLVTVSS
VL: QTVVTQEPSFSVSPGGTVTLTCGLSSGSVSTSYYPSWYQQTPGQAPRTLIYSTNTRSSGVPDRFSGSILGNKAALTITGAQADDESDYYCVLYMGSGISYVFGTGTKVTVL
notes: Fab from E. coli: VH-CH1 from Plasmid A with His6 and Flag tags, VL with lambda CL from Plasmid E; also called KT S28N
B6: Fab VH5-51_IGHD5-18*01>3_IGHJ4*01 G100K/G104T G35A & V3-4_IGLJ1*01 (Fab, V domains shown)
VH: EVQLVQSGAEVKKPGESLKISCKGSGYSFTSYWIAWVRQMPGKGLEWMGIIYPGDSDTRYSPSFQGQVTISADKSISTAYLQWSSLKASDTAMYYCARRKYSYTYDYFDYWGQGTLVTVSS
VL: QTVVTQEPSFSVSPGGTVTLTCGLSSGSVSTSYYPSWYQQTPGQAPRTLIYSTNTRSSGVPDRFSGSILGNKAALTITGAQADDESDYYCVLYMGSGISYVFGTGTKVTVL
notes: Fab from E. coli: VH-CH1 from Plasmid A with His6 and Flag tags, VL with lambda CL from Plasmid E; also called KT G35A
B7: Fab VH5-51_IGHD5-18*01>3_IGHJ4*01 G100K/G104T G35V & V3-4_IGLJ1*01 (Fab, V domains shown)
VH: EVQLVQSGAEVKKPGESLKISCKGSGYSFTSYWIVWVRQMPGKGLEWMGIIYPGDSDTRYSPSFQGQVTISADKSISTAYLQWSSLKASDTAMYYCARRKYSYTYDYFDYWGQGTLVTVSS
VL: QTVVTQEPSFSVSPGGTVTLTCGLSSGSVSTSYYPSWYQQTPGQAPRTLIYSTNTRSSGVPDRFSGSILGNKAALTITGAQADDESDYYCVLYMGSGISYVFGTGTKVTVL
notes: Fab from E. coli: VH-CH1 from Plasmid A with His6 and Flag tags, VL with lambda CL from Plasmid E; also called KT G35V

Columns and labels:
Recombinant Human DLL4 [1] = target: T1, Recombinant Human DLL4 (human, UniProt Q9NR61 27-524); assay: ECL (MSD) multispot binding assay, DLL4 spotted on plate, purified Fab in solution; signal over blank
T1 construct: Bought recombinant human DLL4 (R&D Systems Cat#1506-D4/CF); That entry includes the signal peptide (amino acids 1-25), the transmembrane region and the cytoplasmic domain; also called delta-like protein 4; Delta-like ligand 4

Recombinant Human DLL4 [2] = target: T1, Recombinant Human DLL4; assay: ELISA, DLL4 coated on plate, Fab in solution, absorbance at 450 nm; signal minus noise
[3] = target: T2, Recombinant Human DLL4 (delta-like protein 4) (human, UniProt Q9NR61 27-524); assay: ECL (MSD) binding assay, Fab on immobilized DLL4
T2 construct: also called rHuman DLL4; Delta-like 4

[4] = target: T2, Recombinant Human DLL4 (delta-like …); assay: ELISA, Fab on plate-coated DLL4

| Binder | ECL Signal/Blank (Recombinant Human DLL4 [1]) | ELISA (Signal-Noise) (Recombinant Human DLL4 [2]) | ECL signal [3] | ELISA (Signal-Noise) [4] |
| --- | --- | --- | --- | --- |
| B1 | 67.9 | 0.02 |  |  |
| B2 |  |  | 14500 | 0.07 |
| B3 | 122 | 0.02 |  |  |
| B4 | 69.4 | 0 |  |  |
| B5 |  |  | 17300 | 0.09 |
| B6 |  |  | 19700 | 0.06 |
| B7 |  |  | 21200 | 0.09 |
